Measurements taken from patent US20250179173A1 (IMMUNE ONC THERAPEUTICS, published 2025).

Experiments:
human LILRB4 [1] = molecular target: T1, human LILRB4 (human, UniProt Q8NHJ6 22-259, limits assumed); test: blocking of APOE binding to LILRB4; method not stated in the example
T1 construct: also called ILT3; LIR5

human LILRB4 [2] = molecular target: T1, human LILRB4; test: 'Affinity to human LILRB4'; method not stated in the example
human LILRB4 [3] = molecular target: T1, human LILRB4; test: blocking of Fibronectin binding to LILRB4; method not stated in the example

B1: anti-LILRB4 antibody H7K3m5 (antibody, IgG1, V domains shown)
VH: EVQLVESGGGLVQPGGSLRLSCAASGFSLSSSYWISWVRQAPGKGLEWIGSIDSGSVGITYYATWVKGRFTISRDNSKNTLYLQMNSLRAEDTAVYYCARHGDNWALDLWGQGTLVTVSS
VL: DIQMTQSPSTLSASVGDRVTITCRASQSISSWLAWYQQKPGKAPKLLIYKASTLASGVPSRFSGSGSGTEFTLTISSLQPDDFATYYCQHGYIRGDLDNVFGGGTKVEIK
For B1, the IC50 (human LILRB4 [1]) was 0.18 nM, the Kd (human LILRB4 [2]) was 0.5 nM and the IC50 (human LILRB4 [3]) was 0.78 nM.
